According to patent publication US20130011380A1:
Values joined by “and” are separate entries in the source; they are usually repeats but may differ in a detail not shown here. Equal entries are not always repeated.

Key:
Assay in all cases: anti-Flag IP-MS, mES nuclear extract
Wapal (mouse) = Wapal (mouse) (UniProt Q65Z40)
Lmo7 (mouse) = Lmo7 (mouse) (UniProt E9PYF4)
Nars (mouse) = Nars (mouse) (UniProt Q8BP47)
Dars (mouse) = Dars (mouse) (UniProt Q922B2)
Atxn2l (mouse) = Atxn2l (mouse) (UniProt Q7TQH0)
Nsd1 (mouse) = Nsd1 (mouse) (UniProt O88491)
Cpsf1 (mouse) = Cpsf1 (mouse) (UniProt Q9EPU4)
Nup188 (mouse) = Nup188 (mouse) (UniProt Q6ZQH8)
Tmpo (mouse) = target: Tmpo (mouse)
Prdx6 (mouse) = Prdx6 (mouse) (UniProt O08709)
Bst2 (mouse) = Bst2 (mouse) (UniProt Q8R2Q8)
Smarca5 (mouse) = Smarca5 (mouse) (UniProt Q91ZW3)
Tip2 (mouse) = target: Tip2 (mouse)
Lars (mouse) = Lars (mouse) (UniProt Q8BMJ2)
Aars (mouse) = Aars (mouse) (UniProt Q8BGQ7)
Hmga1 (mouse) = Hmga1 (mouse) (UniProt P17095)
Psmc2 (mouse) = Psmc2 (mouse) (UniProt P46471)
Cct2 (mouse) = Cct2 (mouse) (UniProt P80314)
Prpf4 (mouse) = Prpf4 (mouse) (UniProt Q9DAW6)
Ssr1 (mouse) = Ssr1 (mouse) (UniProt Q9CY50)
Spnb2 (mouse) = Spnb2 (mouse) (UniProt Q62261)
Smarcc1 (mouse) = Smarcc1 (mouse) (UniProt P97496)
Dnaja2 (mouse) = Dnaja2 (mouse) (UniProt Q9QYJ0)
Dnmt3l (mouse) = Dnmt3l (mouse) (UniProt Q9CWR8)
Smc4 (mouse) = Smc4 (mouse) (UniProt Q8CG47)
Cbx1 (mouse) = Cbx1 (mouse) (UniProt P83917)
Abce1 (mouse) = Abce1 (mouse) (UniProt P61222)
Plekha7 (mouse) = Plekha7 (mouse) (UniProt Q3UIL6)
Eef2 (mouse) = Eef2 (mouse) (UniProt P58252)
Cttn (mouse) = Cttn (mouse) (UniProt Q60598)
Plec1 (mouse) = Plec1 (mouse) (UniProt Q9QXS1)
Kif23 (mouse) = Kif23 (mouse) (UniProt E9Q5G3)

Smarca5 (mouse), sequence (Q91ZW3 2-1051 limits assumed): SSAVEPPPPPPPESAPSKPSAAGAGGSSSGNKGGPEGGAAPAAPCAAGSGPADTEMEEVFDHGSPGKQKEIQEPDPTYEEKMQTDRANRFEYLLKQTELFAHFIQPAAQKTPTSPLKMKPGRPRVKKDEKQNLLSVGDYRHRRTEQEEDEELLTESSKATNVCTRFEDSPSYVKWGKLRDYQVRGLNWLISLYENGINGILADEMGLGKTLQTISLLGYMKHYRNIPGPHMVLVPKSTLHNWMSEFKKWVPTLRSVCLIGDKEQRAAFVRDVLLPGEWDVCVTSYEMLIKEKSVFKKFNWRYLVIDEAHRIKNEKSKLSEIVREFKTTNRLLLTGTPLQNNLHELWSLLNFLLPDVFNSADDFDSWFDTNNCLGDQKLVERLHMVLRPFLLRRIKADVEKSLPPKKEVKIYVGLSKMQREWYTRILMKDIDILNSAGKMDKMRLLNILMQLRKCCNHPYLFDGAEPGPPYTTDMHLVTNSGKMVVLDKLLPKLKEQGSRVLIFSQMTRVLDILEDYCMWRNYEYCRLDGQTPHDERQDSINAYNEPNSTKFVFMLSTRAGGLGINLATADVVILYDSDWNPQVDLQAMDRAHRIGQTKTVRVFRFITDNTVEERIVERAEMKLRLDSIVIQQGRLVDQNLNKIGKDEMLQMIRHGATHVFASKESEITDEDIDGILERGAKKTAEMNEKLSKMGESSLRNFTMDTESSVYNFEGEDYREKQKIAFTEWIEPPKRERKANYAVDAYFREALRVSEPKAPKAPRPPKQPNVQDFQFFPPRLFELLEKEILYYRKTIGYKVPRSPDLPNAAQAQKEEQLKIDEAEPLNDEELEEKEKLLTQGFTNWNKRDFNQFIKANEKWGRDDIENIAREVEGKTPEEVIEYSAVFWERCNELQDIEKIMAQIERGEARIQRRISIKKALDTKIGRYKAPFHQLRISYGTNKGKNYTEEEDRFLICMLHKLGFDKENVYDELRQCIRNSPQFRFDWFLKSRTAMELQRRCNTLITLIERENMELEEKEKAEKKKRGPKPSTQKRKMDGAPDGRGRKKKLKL
Cct2 (mouse), sequence (P80314 2-535 limits assumed): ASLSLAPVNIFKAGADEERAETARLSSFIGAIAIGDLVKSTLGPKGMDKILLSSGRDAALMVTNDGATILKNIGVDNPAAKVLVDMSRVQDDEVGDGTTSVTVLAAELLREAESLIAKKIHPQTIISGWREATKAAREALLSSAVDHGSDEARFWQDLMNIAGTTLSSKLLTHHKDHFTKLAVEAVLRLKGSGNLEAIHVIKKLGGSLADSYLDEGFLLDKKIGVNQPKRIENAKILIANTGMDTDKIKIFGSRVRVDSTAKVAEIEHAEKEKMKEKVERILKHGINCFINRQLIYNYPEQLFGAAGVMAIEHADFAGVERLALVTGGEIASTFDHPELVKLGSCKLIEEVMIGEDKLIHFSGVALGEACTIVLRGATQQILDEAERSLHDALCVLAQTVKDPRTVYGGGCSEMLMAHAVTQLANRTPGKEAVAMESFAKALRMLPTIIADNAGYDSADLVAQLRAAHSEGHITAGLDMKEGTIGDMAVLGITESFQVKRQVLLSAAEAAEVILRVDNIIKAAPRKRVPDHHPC
Nars (mouse), sequence (Q8BP47 whole entry): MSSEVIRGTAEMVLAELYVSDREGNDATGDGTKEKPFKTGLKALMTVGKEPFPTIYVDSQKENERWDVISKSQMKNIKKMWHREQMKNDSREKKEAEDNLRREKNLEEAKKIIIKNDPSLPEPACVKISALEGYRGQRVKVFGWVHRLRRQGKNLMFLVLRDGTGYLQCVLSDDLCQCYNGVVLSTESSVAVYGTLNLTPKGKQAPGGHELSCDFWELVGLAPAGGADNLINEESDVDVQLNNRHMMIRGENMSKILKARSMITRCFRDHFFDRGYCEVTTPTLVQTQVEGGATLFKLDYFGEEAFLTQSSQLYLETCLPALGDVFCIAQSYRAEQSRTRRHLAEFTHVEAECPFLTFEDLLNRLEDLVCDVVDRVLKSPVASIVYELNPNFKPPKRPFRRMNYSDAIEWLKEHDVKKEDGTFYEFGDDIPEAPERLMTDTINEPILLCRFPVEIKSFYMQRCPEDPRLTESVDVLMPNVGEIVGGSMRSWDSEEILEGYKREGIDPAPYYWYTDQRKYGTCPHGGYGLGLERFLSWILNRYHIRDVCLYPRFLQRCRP
Wapal (mouse), sequence (Q65Z40 whole entry): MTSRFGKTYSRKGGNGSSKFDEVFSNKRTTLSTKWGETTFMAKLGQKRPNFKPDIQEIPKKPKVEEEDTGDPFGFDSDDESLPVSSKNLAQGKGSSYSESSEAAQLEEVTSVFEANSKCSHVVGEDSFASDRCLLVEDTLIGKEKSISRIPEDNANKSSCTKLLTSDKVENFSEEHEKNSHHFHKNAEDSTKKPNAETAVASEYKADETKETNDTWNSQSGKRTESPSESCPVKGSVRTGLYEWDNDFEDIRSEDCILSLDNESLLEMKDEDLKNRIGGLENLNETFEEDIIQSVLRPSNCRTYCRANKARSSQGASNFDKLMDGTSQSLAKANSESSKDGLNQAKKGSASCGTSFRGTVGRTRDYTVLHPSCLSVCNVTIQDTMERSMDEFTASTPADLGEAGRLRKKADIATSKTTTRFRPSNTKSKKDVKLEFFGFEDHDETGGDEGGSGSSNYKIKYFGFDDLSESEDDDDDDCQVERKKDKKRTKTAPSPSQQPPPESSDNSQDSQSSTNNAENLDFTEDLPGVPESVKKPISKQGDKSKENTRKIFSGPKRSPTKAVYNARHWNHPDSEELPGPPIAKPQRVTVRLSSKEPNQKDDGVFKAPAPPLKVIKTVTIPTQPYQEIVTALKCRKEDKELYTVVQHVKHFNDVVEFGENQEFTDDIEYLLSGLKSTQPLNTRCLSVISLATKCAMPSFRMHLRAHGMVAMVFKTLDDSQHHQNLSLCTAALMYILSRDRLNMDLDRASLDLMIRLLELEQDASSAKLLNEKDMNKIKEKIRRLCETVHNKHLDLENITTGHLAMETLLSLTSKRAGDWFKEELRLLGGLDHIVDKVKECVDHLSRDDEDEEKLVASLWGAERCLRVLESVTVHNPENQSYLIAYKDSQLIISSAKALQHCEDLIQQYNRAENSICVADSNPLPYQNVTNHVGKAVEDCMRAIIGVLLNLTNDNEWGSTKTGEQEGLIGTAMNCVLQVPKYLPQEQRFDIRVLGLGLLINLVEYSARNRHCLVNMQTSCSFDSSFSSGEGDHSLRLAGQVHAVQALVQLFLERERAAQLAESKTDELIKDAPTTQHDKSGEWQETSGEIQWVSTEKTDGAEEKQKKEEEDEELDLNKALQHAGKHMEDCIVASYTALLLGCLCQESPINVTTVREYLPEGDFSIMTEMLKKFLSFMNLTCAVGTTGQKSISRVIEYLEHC
Nup188 (mouse), sequence (Q6ZQH8 2-1759 limits assumed): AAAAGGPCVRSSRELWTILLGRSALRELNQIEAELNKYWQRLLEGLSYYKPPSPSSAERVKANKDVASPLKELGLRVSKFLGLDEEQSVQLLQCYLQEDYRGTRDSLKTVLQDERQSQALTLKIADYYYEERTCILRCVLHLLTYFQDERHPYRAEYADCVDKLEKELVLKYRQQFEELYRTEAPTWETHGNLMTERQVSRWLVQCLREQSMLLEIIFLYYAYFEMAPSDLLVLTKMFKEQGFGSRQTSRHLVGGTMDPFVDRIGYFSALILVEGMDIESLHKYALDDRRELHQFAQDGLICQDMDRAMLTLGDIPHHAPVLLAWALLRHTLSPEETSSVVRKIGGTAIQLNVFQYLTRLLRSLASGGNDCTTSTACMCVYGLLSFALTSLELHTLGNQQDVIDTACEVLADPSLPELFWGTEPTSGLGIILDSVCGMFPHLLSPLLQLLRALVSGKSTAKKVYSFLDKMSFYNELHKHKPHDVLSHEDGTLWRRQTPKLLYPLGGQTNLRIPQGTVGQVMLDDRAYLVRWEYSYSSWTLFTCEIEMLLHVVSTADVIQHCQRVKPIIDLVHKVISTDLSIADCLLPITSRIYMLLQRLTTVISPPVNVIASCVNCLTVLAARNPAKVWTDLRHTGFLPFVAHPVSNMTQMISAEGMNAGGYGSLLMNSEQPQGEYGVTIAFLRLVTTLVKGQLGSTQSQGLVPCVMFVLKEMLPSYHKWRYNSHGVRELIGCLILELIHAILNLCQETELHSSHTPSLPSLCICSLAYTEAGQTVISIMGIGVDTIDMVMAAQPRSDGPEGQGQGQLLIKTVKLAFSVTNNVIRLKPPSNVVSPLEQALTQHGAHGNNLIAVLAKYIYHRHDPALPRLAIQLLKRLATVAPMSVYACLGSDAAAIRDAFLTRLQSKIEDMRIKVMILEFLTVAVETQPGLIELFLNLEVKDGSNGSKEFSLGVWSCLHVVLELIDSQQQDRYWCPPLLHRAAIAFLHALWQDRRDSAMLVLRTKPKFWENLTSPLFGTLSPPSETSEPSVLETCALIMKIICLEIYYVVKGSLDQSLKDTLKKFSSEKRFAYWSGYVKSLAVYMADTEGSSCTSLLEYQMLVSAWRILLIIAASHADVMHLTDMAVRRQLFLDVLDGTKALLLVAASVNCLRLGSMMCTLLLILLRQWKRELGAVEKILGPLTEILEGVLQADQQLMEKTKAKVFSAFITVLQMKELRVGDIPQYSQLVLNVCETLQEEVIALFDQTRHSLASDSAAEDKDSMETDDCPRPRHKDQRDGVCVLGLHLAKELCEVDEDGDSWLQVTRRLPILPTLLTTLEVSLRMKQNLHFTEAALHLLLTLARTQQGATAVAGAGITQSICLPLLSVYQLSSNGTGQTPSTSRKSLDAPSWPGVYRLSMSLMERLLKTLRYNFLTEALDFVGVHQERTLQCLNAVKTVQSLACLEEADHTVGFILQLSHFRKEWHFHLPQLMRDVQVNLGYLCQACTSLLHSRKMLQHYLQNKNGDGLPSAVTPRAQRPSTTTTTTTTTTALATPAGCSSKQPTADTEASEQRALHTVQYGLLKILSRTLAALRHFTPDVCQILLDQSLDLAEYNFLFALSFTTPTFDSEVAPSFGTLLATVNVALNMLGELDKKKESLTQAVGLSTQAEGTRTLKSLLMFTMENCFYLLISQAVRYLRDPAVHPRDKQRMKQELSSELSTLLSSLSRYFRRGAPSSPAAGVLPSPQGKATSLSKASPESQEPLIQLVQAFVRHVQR

## 2x Flag tag only (control) (peptide)
Wapal (mouse)
  Nucleus peptide: 0 peptides
  Nucleus spectra: 0 spectra
Lmo7 (mouse)
  Nucleus peptide: 0 peptides
  Nucleus spectra: 0 spectra
Nars (mouse)
  Nucleus peptide: 3 peptides
  Nucleus spectra: 3 spectra
Dars (mouse)
  Nucleus peptide: 1 peptides
  Nucleus spectra: 2 spectra
Atxn2l (mouse)
  Nucleus peptide: 2 peptides
  Nucleus spectra: 3 spectra
Nsd1 (mouse)
  Nucleus peptide: 1 peptides
  Nucleus spectra: 2 spectra
Cpsf1 (mouse)
  Nucleus peptide: 0 peptides
  Nucleus spectra: 0 spectra
Nup188 (mouse)
  Nucleus peptide: 2 peptides
  Nucleus spectra: 3 spectra
Tmpo (mouse)
  Nucleus peptide: 2 peptides
  Nucleus spectra: 6 spectra
Prdx6 (mouse)
  Nucleus peptide: 1 peptides
  Nucleus spectra: 1 spectra
Bst2 (mouse)
  Nucleus peptide: 1 peptides
  Nucleus spectra: 1 spectra
Smarca5 (mouse)
  Nucleus peptide: 8 peptides
  Nucleus spectra: 15 spectra
Tip2 (mouse)
  Nucleus peptide: 6 peptides
  Nucleus spectra: 14 spectra
Lars (mouse)
  Nucleus peptide: 4 peptides
  Nucleus spectra: 6 spectra
Aars (mouse)
  Nucleus peptide: 3 peptides
  Nucleus spectra: 4 spectra
Hmga1 (mouse)
  Nucleus peptide: 1 peptides
  Nucleus spectra: 8 spectra
Psmc2 (mouse)
  Nucleus peptide: 1 peptides
  Nucleus spectra: 1 spectra
Cct2 (mouse)
  Nucleus peptide: 2 peptides
  Nucleus spectra: 4 spectra
Prpf4 (mouse)
  Nucleus peptide: 2 peptides
  Nucleus spectra: 2 spectra
Ssr1 (mouse)
  Nucleus peptide: 0 peptides
  Nucleus spectra: 0 spectra
Spnb2 (mouse)
  Nucleus peptide: 7 peptides
  Nucleus spectra: 11 spectra
Smarcc1 (mouse)
  Nucleus peptide: 4 peptides
  Nucleus spectra: 4 spectra
Dnaja2 (mouse)
  Nucleus peptide: 1 peptides
  Nucleus spectra: 2 spectra
Dnmt3l (mouse)
  Nucleus peptide: 2 peptides
  Nucleus spectra: 4 spectra
Smc4 (mouse)
  Nucleus peptide: 1 peptides
  Nucleus spectra: 2 spectra
Cbx1 (mouse)
  Nucleus peptide: 1 peptides
  Nucleus spectra: 4 spectra
Abce1 (mouse)
  Nucleus peptide: 3 peptides
  Nucleus spectra: 3 spectra
Plekha7 (mouse)
  Nucleus peptide: 1 peptides
  Nucleus spectra: 1 spectra
Eef2 (mouse)
  Nucleus peptide: 6 peptides
  Nucleus spectra: 9 spectra
Cttn (mouse)
  Nucleus peptide: 1 peptides
  Nucleus spectra: 2 spectra
Plec1 (mouse)
  Nucleus peptide: 15 peptides
  Nucleus spectra: 20 spectra

## human AID containing two tandem Flag tags (Flag-human AID) (from UniProt Q9GZX7 1-198) (enzyme)
Wapal (mouse)
  Nucleus peptide: 18 peptides
  Nucleus spectra: 41 spectra
Nars (mouse)
  Nucleus peptide: 7 peptides
  Nucleus spectra: 16 spectra
Dars (mouse)
  Nucleus peptide: 4 peptides
  Nucleus spectra: 6 spectra
Atxn2l (mouse)
  Nucleus peptide: 4 peptides
  Nucleus spectra: 9 spectra
Nsd1 (mouse)
  Nucleus peptide: 4 peptides
  Nucleus spectra: 5 spectra
Cpsf1 (mouse)
  Nucleus peptide: 4 peptides
  Nucleus spectra: 8 spectra
Nup188 (mouse)
  Nucleus peptide: 4 peptides
  Nucleus spectra: 7 spectra
Prdx6 (mouse)
  Nucleus peptide: 3 peptides
  Nucleus spectra: 3 spectra
Bst2 (mouse)
  Nucleus peptide: 4 peptides
  Nucleus spectra: 12 spectra
Smarca5 (mouse)
  Nucleus peptide: 16 peptides
  Nucleus spectra: 45 spectra
Lars (mouse)
  Nucleus peptide: 9 peptides
  Nucleus spectra: 13 spectra
Aars (mouse)
  Nucleus peptide: 10 peptides
  Nucleus spectra: 21 spectra
Hmga1 (mouse)
  Nucleus peptide: 5 peptides
  Nucleus spectra: 18 spectra
Psmc2 (mouse)
  Nucleus peptide: 3 peptides
  Nucleus spectra: 7 spectra
Cct2 (mouse)
  Nucleus peptide: 8 peptides
  Nucleus spectra: 17 spectra
Prpf4 (mouse)
  Nucleus peptide: 4 peptides
  Nucleus spectra: 5 spectra
Ssr1 (mouse)
  Nucleus peptide: 3 peptides
  Nucleus spectra: 9 spectra
Spnb2 (mouse)
  Nucleus peptide: 17 peptides
  Nucleus spectra: 26 spectra
Smarcc1 (mouse)
  Nucleus peptide: 6 peptides
  Nucleus spectra: 10 spectra
Dnaja2 (mouse)
  Nucleus peptide: 12 peptides
  Nucleus spectra: 43 spectra
Dnmt3l (mouse)
  Nucleus peptide: 4 peptides
  Nucleus spectra: 10 spectra
Smc4 (mouse)
  Nucleus peptide: 5 peptides
  Nucleus spectra: 7 spectra
Cbx1 (mouse)
  Nucleus peptide: 2 peptides
  Nucleus spectra: 12 spectra
Abce1 (mouse)
  Nucleus peptide: 7 peptides
  Nucleus spectra: 11 spectra
Plekha7 (mouse)
  Nucleus peptide: 4 peptides
  Nucleus spectra: 6 spectra
Eef2 (mouse)
  Nucleus peptide: 13 peptides
  Nucleus spectra: 24 spectra
Cttn (mouse)
  Nucleus peptide: 4 peptides
  Nucleus spectra: 9 spectra
Kif23 (mouse)
  Nucleus peptide: 4 peptides and 7 peptides
  Nucleus spectra: 11 spectra and 18 spectra
Plec1 (mouse)
  Nucleus peptide: 48 peptides
  Nucleus spectra: 94 spectra
